Among the data in PMC6488296 are response (% PhyB-PIF complex) values, retold here.

The labels stand for the following.
B1: MBP-PIF6_(1-100)-His6 [A. thaliana] / PhyB_(1-651)-Avitag-His6 [modified: phycocyanobilin chromophore; biotin on the Avitag; phycocyanobilin chromophore; biotin on the Avitag] [A. thaliana] (parent)
chain 1: MMFLPTDYCCRLSDQEYMELVFENGQILAKGQRSNVSLHNQRTKSIMDLYEAEYNEDFMKSIIHGGGGAITNLGDTQVVPQSHVAAAHETNMLESNKHVD
chain 2: MVSGVGGSGGGRGGGRGGEEEPSSSHTPNNRRGGEQAQSSGTKSLRPRSNTESMSKAIQQYTVDARLHAVFEQSGESGKSFDYSQSLKTTTYGSSVPEQQITAYLSRIQRGGYIQPFGCMIAVDESSFRIIGYSENAREMLGIMPQSVPTLEKPEILAMGTDVRSLFTSSSSILLERAFVAREITLLNPVWIHSKNTGKPFYAILHRIDVGVVIDLEPARTEDPALSIAGAVQSQKLAVRAISQLQALPGGDIKLLCDTVVESVRDLTGYDRVMVYKFHEDEHGEVVAESKRDDLEPYIGLHYPATDIPQASRFLFKQNRVRMIVDCNATPVLVVQDDRLTQSMCLVGSTLRAPHGCHSQYMANMGSIASLAMAVIINGNEDDGSNVASGRSSMRLWGLVVCHHTSSRCIPFPLRYACEFLMQAFGLQLNMELQLALQMSEKRVLRTQTLLCDMLLRDSPAGIVTQSPSIMDLVKCDGAAFLYHGKYYPLGVAPSEVQIKDVVEWLLANHADSTGLSTDSLGDAGYPGAAALGDAVCGMAVAYITKRDFLFWFRSHTAKEIKWGGAKHHPEDKDDGQRMHPRSSFQAFLEVVKSRSQPWETAEMDAIHSLQLILRDSFKESEAAMNSKVVDGVVQPCRDMAGEQGIDELGA

In the test the parent is B1. The test can be described thus: size exclusion chromatography (gel filtration, Superdex 200 10/300 GL, A671 nm). Conditions: with PhyB_(1-651)-Avitag-His6 [modified: phycocyanobilin chromophore, PhyB illuminated with 660 nm light, PhyB:MBP-PIF 2:1 molar ratio, 60 min at room temperature, parent: 56, read off a plot.
As to chain 1 MMFLPTDYCCRLSDQEYMELVFENGQILAKGQRSQVSLHNQRTKSIMDLYEAEYNEDFMKSIIHGGGGAITNLGDTQVVPQSHVAAAHETNMLESNKHVD [chain 1 N35Q], the response (% PhyB-PIF complex) worked out at 52.

Turning to chain 1 MMFLPTDYSSRLSDQEYMELVFENGQILAKGQRSNVSLHNQRTKSIMDLYEAEYNEDFMKSIIHGGGGAITNLGDTQVVPQSHVAAAHETNMLESNKHVD [chain 1 C9S C10S], the response (% PhyB-PIF complex) was determined as 64. With chain 1 MMFLPTDYSSRLSDQEYMELVFENGQILAKGQRSQVSLHNQRTKSIMDLYEAEYNEDFMKSIIHGGGGAITNLGDTQVVPQSHVAAAHETNMLESNKHVD [chain 1 C9S C10S N35Q] the figure was 54; with chain 1 MMFLPTDYCCRLSDQEYMELVFENGQILAKGQRSNVALHNQRTKSIMDLYEAEYNEDFMKSIIHGGGGAITNLGDTQVVPQSHVAAAHETNMLESNKHVD [chain 1 S37A], 57.
